A short description of this data set: soluble on expression in E. coli; label from the status in PepcDB or PDB records.
For the sequence “MSKPIEIEIRRAPVLGSSMAYRETGAQDAPVVLFLHGNPTSSHIWRNILPLVSPVAHCIAPDLIGFGQSGKPDIAYRFFDHVRYLDAFIEQRGVTSAYLVAQDWGTALAFHLAARRPDFVRGLAFMEFIRPMPTWQDFHHTEVAEEQDHAEAARAVFRKFRTPGEGEAMILEANAFVERVLPGGIVRKLGDEEMAPYRTPFPTPESRRPVLAFPRELPIAGEPADVYEALQSAHAALAASSYPKLLFTGEPGALVSPEFAERFAASLTRCALIRLGAGLHYLQEDHADAIGRSVAGWIAGIEAVRPQLAAVD”, the “soluble on expression in E. coli” value was “soluble”. In the case of “MSLTDLFAREPYAPLAERLRPHTLDDVVGQEHLIGEGKPLRVAVEGGKPHSMLLWGPPGVGKTTLARILAQSFNAQFLPVSAVFSGVKDIREAIDKAEIALQQGRATILFVDEVHRFNKAQQDAFLPHVESGLLTFIGATTENPSFEVNPALLSRAQVYVLQPLSSDDLKKLIAKVLALPEYQEFTIETDAQKLLVNTVDGDARRLLNLLEQLLRAADTRRLKNLTAEFLADSLGAQIRRFDKGGESFYNQISALHKSVRGSHPNAALYWFCRMLDGGTDPRYLARRIVRIAWEDIGLADPRALQIANDAAATFERLGSPEGELALAQAVLYLAAAAKSNAGYKAYNQMRHFVKENASDEVPVHLRNAPTKLMKELGYGREYRYAHDEPNAYAAGESYMPDGLDEPDFYQPVPRGLEIKIGEKLAWLKSLDEEVLKAEGHHHHHH”, the “soluble on expression in E. coli” value is recorded as “soluble”. Next, “MSLSGCASPASASGASALSVWDLFQGGDGMLMDDMIEAVSKGAGGAEGFEIDRTILDWGPSYYTKLAMSAAGGRASDVAAMHLSRLAGYAPGGLVDAFDLDLLAEYGVTEKDFTPAVWARTRHEGTVYAIPLDVHPFIVFYDKKAAERAGLLDAAGELAPMGSPEALLEAGKALAEATGESGILFGHVTDTAQNWRLFAGLYAQTGAAFDLPDGGPPEIDVDAAVRVVTLMTRLFDGKTNPSNLDYNGALAAFSSGRGGMAMLGEWELPTLKKSGMELGAAPFPQVFEKPAVYTDSHSFVLPHQDSPDPARRREAHRYVAQILAQSLTWASAGHIPAYQPVLAEPEYAALDPQSSYADAAEVAVLDPPNWFAGAGSNFQNRMCQPLQSALLGDTTPEKAVRQMVREADTLLRQPNPVAEGHHHHHH”: “soluble”. The entry for “MDIKAMGYVVIPRLPFKEFRDEKIYDHLFKRAEYRPNQELELGQTIIKVVELAKDFNWSAAQIKYSLDRMEKQGYIKLHRLPQKRGLIVTILHYADYIQLGNYMKNKALEPAQIEHQEVDDKMKNAFELYENKVARSVGPMEAQRIGYMVDDYGEEKVMEAIKTAFQLKGKAASLSYVQAILSNPFTQKRKEKQYGYKQSSQYRHRISNDHAGTSGKVSPLFGNKTGRIRRKG” is “not soluble”; for “GMIDFTKSKQYTLSIRLSTDGFSFSIYNPINDNSQSLFEKEVDTSLSLTANLKNVFHESDFLSYSYKRVNIMIASKRFTMIPLELFEEEQAELLFYHNHQKRENEIVMYNILKKNNVVIIFGIDKSTYTFLNEQYPEARFYSQSTPLIEYFSIKSRLGNSKKMYASVRKDAIDIYCFERGQLLLANSFECMQTEDRIYYLLYVWKQLEFNQERDELHLTGTLSDKETLMNELKKFILQVFIMNPANNIDMQALLTCE” it is “soluble”; for “MGLSTSNKPLSERIEESKKDVFMQKAVAKAQDAQWEKREGAREALGNWPQWRELGEQIRQHTIQYLPDYLEEFSDNVAKRGGKVFFAQTAEEANEYVKQVVLEKKAKKIVKSKSMVTTEVDIDPMLLGLDDVSVMETDLAEFILQMDDWDEPSHIVFPSIHKNREQIRQVFAKKLGYQGDNDPVNLARCAREVMRKFFLEAEIGITGCNFAIADSGLINLNTNEGNADLTISIPKTQIVLMGMERIVPTMREAEVLDNLLARSAVGQNLTTYVTFAGQKNADESDGPEEFHVVILDNGRSKALGTAFQPVLQCIRCGSCLNVCPVYRHIGGHGYGSIYPGPIGAVLSPILGGYKQFGELPYASSLCGACTETCPVKIPLHELLIEHRKVMTDDLKMKHGFEDFQMRMVGKATGSPAMFKAAMKVDHAAAGILSKQKDITVENMYNHGGYLDKGPGLVKGWTDVRDLPRPPKSSENFRSWFKKHQEGEKND” it is “not soluble”. The entry for “PHPADPRLLIGQHVGAGPMVLASPWPRIVAPADFDTRFQGEARDLVLAHERVHLARGDAQINALVVALQCLCWFNPLVHLGAHRLRLDQEMACDEAVLARRPEARRLYAETLLDTLLAPR” is “not soluble”.

“GSHMASDLKNPYERIQAEAYDAMSGIQTEGTDDDGGGDNIGWINDGDWVKYERVHFERDASSIEVRVASDTPGGRIEIRTGSPTGTLLGDVQVPNTGGWQQWQTVTGNVQIQPGTYDVYLVFKGSPEYDLMNVNWFVFRANG”: the “soluble on expression in E. coli” value is reported as “soluble”. Next, “SPAPPACDLRVLSKLLRDSHVLHSRLSQCPEVHPLPTPVLLPAVDFSLGEWKTQMEETKAQDILGAVTLLLEGVMAARGQLGPTCLSSLLGQLSGQVRLLLGALQSLLGTQLPPRGRTTAHKDPNAIFLSFQHLLRGKVRFLMLVGGSTLCVRRAPPTTAVPS”: “soluble”; “MVTREEFVARFGGVFEHSPFIAERAYDAGGAGLELTAKAVHGALCAQFRVASEAERLGVLRAHPDLAGKLAIAGELTADSRNEQAGAGLDRLSPQEHARFTQLNSAYTEKFGFPFIIAVKGLNRHDILSAFDTRIDNNAAQEFATATGQVEKIAWLRLASMLPEGLEHHHHHH”: “soluble”. Next, “MGHHHHHHSHIVERVIEATLPTKFYGTFRAVGYKTPLGEIVALVKGRVDEGDVLVRIHSECLTGDVFHSLRCDCGDQLENALKMIDREGKGVAIYMRGHEGRGIGLINKLMAYKLQEEGKDTVDANIELGFPPDMRSYGIAAQILMDLKVKSIRLLTNNPLKIEELKKYGFKIVREPIE”: “soluble”. The entry for “MSLLRPLSKTDCPMLQEINAKALGYLVSLDLLERQYERLIEDCHHYFLAYADKDTNQLLGYVHAERYETLYASDGLNLLGLAVLPAYQRRGIGSALLRALESQARQEGIAFIRLNSASHRKEAHAFYRNLDYADDKTQLRFIKNLQGDDNDFEGHHHHHH” is “soluble”. “MNTPHPSAPVLVAVANPTIHPEALHIVAATGRECIDTTDPREISRHAHRVAAMLVDATTAPHMASLPPNTRVMYLEPEPGPIDYEKAMKSGAELAVIVPAQSPELLKALGRRDVAPRAGKYPVIAVIGAAGGAGTSTLCAALAADYREALLIDTEHFSGGIDLLLGKEDDPGIRWDDVPDSGEKVPASELLASLPCVDPNVRILAATRDSVTHVAEQQLRGVVESVRGTCPIIIDVQRHHVLFESCVDLADLVVLLVPAEIRSVAAAAQLVPWLRRRKVDVVGVLRERAWASVDREEVARVTGADIVATVPTVKGLPREVELGGMATIPRALRRPLAQLRSHIDG”: the “soluble on expression in E. coli” value is recorded as “not soluble”. The entry for “MGSDKIHHHHHHMKESLRILHINDLHSHFEAYPKIKRFFAEHSKTQREVLRFDIGDNVDKSHPLTDVSAGRVNVDLMNDLGIDFATIGNNEGIGLAKAEINQLYHKADFQVILGNLRDKKGRPTWAQPYVIYETKAGTKLALLAYTFPYYWTYVPNGWQVLDAISSLKKDLENPEVAAADFRILLSHLGIRLDEKIARQVPEIDLIIGAHTHHVFEEGEVVNGTYLAAAGRYGDHVGQIDLDFEDHSLTNIAIEAVPTSDLDSEKEDAAFVAHLFEEGEKLLAENLICKLSRQPSLKECADLVMEAMKKSAAADLAIINTGLVVEPFSQNLTKADLHKSLPHQMRLVKFQVTQTELLEICHDIFSQADLLANQQIRGMGFRGKQFGKVVTSGFTYKNGKIVYNNKAIGRKDKMSLVLVDQYYFAPYFNSLTSRKGQLLFPDLLRQTVEKYLRGDL” is “not soluble”.

For “MGSDKIHHHHHHMKIVKFGGSSLSSGVQIRKVFQIVKSDPERRIVVVSAPGKRFKGDVKITDLLLKLAEAILNEEKTAQIYEQIFLRYQAIGDFFKIPRSGIEQLKEHLYSVAQADYPSNDFFRAALSAQGENMSAHLITLIFKQLGLKARLLTPKEVGLTVSGEARKAQILPGSYAKIAKTKFTDNEVLIFPGFFGITKNGLINTFSRGGSDITGAILARGFGADLYENFTDVDSIYAVNPGLVADPAPIKEMTYNEMRELSYAGFAVFHDEAILPAIQGKIPICVKNTNRPEMPGTKIVPRDKVSHKNKITGIASSHHFQAIYLHRYLINREVGFTAKILKIMADLNISYEHMPSGIDDLTIILDKNQLTNGRKEKLTQRIKDEIQPDDLQWRNDYAIIMVVGEGLVNRVGAMADIVDPIRDAGISLTMVNQGSSEISIMLGVRPEDEQKAVKAIYNDHFENGHPKKELQIPRASFKSVSKSLIANFFV”, the “soluble on expression in E. coli” value is listed as “not soluble”. Next, “MKIAIIGLGLMGGSLGLCLKENKLISCVYGMDLSKENEKDALQLGLIHELIEFKDLALCDMIFVATPVNAIIEILQKLVDLPSNVTIIELGSTKRKIIESLPKNLIKQTLFAHPMTGTENSGPKAAFKELYKDAVCVLCDSEIADDLHQKRAVEIFSHLGMKIVFMDSKAHDHHAAIISHLPHVISFSLANFVMKEEDKRNIVHLAGGSFKGMSRIAKSSPQMWESIFLQNKDNLLSSIDFFQQELERCKQMIQLDKNDELREWMKQANTLREILMGHHHHHHSH”: “soluble”; “MTKLVIDTVGPATSVQDAGRHGAQRYGLPPSGAMDRLSLAAANVLVGNSAFAAAIELGPLGAKLSVRDGAVRLALTGAERPAALDGQPLAFNESFTLAEGQILTLGVARGGVFSYLGIEGGVGGEPMFGSLAVNARAGLGSPYPRPLQAGDAIAVKSAAPSVERRLDLPEQQDTPIRVVLGPQDDEFGAAVEIFLTGEWTMSATSDRMGYRLDGPQISHLHGHNIVSDGTVDGSIQVPGSGQPIVLMPDRGTSGGYPKIATVISADLGRLAQRQPGRPFRFQAVSVEEAQDAYRTMAKLIRSLPDLLRDAQHAIIDLDALLSANVAGTAIDALAAELEHHHHHH”: “not soluble”; “MAPFSPASSDVLVIGGGPSGTALSAELAARGLDVQQLAPHPPRPFPATYGAWLGDLPTWARGCAEQVWTDVRAYTGPQPTSLGQPYALLDNAALLRTLRGLADWTWVEGAALHAERSGAGWTVYGAGGERWQTRLVVDASGHGALVSPVRFPGGAALQTAYGVVARFRRPPVTPGSMVWMDYRTPAPELKRGEATFLYAMHLGGDRYFVEETSLIARPAPTRAELRRRLLARLSAQGTPPHATESEEWVAFPMNAQAPAPGGVLAYGAAAGRVHPVSGFQVAGALSDAPGVATAIATALCQGKDAAAAGWAALWSPERRAAREVHLLGVGALLGLERAELPHFFGTFFGLPREQWARFLHPDTDAGTLARTMLRVFAQTGGRVRLPLARAALAQPAASGRALAAAAGLKILEHHHHHH”: “not soluble”. In the case of “WVPHELTENQKNRRFEVSSSLILRNHNEPFLDRIVTCDEKWILYDNRRRSAQWLDQEEAPKHFPKPILHPKKVMVTIWWSAAGLIHYSFLNPGETITSEKYAQEIDEMNQKLQRLQLALVNRKGPILLHDNARPHVAQPTLQKLNELGYEVLPHPPYSPDLLPTNYHVFKHLNNFLQGKRFHNQQDAENAFQEFVESQSTDFYATGINQLISRWQKCVDCNGSYFD”, the “soluble on expression in E. coli” value is given as “soluble”. Next, “MATVKTVLVKGRCNSRGAYPLAVQVLHKRKKKVFYTGYSITPCEFDSFSGRVLFNGVYTMETVRRMNRTCRKICKILDKAIGILEREGNEYTTCDISRVYETLTGKVGFYSYFRERIRVLFDTGHEGTAKAYEATLHSMQKHLCKTDFPFAHLSSRLVIKYRDTLLEAGVGKNTIGFYLHNMKAVYRRGCLELNLVFPSPFCNIRIRSEKTVKQSLPMKQVKSLANLSLSVGTPECLARDVFMFSIYTRGMSFVDIAFLKKSDIFPGVIRYRRQKTGQLLEIGINRQIQNLLERYGDTSGDYLFPLVDESETPYSGYKKAYNRMRYALKKVS”: “not soluble”.
